Assay results published in patent publication US20180037644A1 (Pfizer, published 2018).
Like-named read-outs stand apart in the source and are kept apart here.

Assays:
[1] = biological target: T1, cynomolgus monkey IL-33 (cys mut) (cynomolgus monkey); experiment: cell-based or functional assay
T1 chain: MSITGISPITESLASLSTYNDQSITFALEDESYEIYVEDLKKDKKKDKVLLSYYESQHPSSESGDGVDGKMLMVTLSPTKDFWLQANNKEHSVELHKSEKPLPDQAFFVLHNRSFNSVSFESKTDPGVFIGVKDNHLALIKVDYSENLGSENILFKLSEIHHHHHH

[2] = biological target: T2, human IL-33 (mm2) (human, UniProt O95760 112-270); experiment: cell-based or functional assay
T2 chain: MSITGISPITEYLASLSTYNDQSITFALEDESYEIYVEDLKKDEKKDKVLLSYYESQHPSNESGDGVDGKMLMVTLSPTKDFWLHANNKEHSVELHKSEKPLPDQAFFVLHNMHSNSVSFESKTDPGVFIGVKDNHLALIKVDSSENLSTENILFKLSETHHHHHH

[3] = biological target: T2, human IL-33 (mm2); experiment: cell-based or functional assay
[4] = biological target: T1, cynomolgus monkey IL-33 (cys mut); experiment: cell-based or functional assay
[5] = biological target: T3, human IL-33 WT (R&D) (human, UniProt O95760 112-270); experiment: cell-based or functional assay
T3 sequence: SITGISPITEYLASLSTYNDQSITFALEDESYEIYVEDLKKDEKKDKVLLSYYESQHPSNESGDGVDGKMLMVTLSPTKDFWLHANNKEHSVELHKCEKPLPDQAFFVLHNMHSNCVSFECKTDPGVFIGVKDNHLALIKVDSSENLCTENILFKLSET

[6] = biological target: T2, human IL-33 (mm2); experiment: cell-based or functional assay
[7] = biological target: T3, human IL-33 WT (R&D); experiment: cell-based or functional assay; remark: listed apart in the source
[8] = biological target: T2, human IL-33 (mm2); experiment: cell-based or functional assay
[9] = biological target: T1, cynomolgus monkey IL-33 (cys mut); experiment: cell-based or functional assay
[10] = biological target: T2, human IL-33 (mm2); experiment: cell-based or functional assay
[11] = biological target: T1, cynomolgus monkey IL-33 (cys mut); experiment: cell-based or functional assay
[12] = biological target: T2, human IL-33 (mm2); experiment: cell-based or functional assay
[13] = biological target: T1, cynomolgus monkey IL-33 (cys mut); experiment: SPR, IgG captured by anti-human Fc, IL-33 in solution
Procedure: (§1) Binding to human and cynomolgus monkey IL-33 was measured by surface plasmon resonance using a BIAcore T200 instrument. An anti-human Fc antibody was immobilized on a CM5 chip, and anti-IL-33 antibodies were captured.

[14] = biological target: T2, human IL-33 (mm2); experiment: as above
Procedure: as §1

[15] = biological target: T1, cynomolgus monkey IL-33 (cys mut); experiment: cell-based or functional assay
[16] = biological target: T2, human IL-33 (mm2); experiment: cell-based or functional assay
[17] = biological target: T3, human IL-33 WT (R&D); experiment: cell-based or functional assay; remark: listed apart in the source
[18] = biological target: T2, human IL-33 (mm2); experiment: cell-based or functional assay
[19] = biological target: T1, cynomolgus monkey IL-33 (cys mut); experiment: cell-based or functional assay
[20] = biological target: T3, human IL-33 WT (R&D); experiment: cell-based or functional assay; remark: listed apart in the source
[21] = biological target: T2, human IL-33 (mm2); experiment: cell-based or functional assay
[22] = biological target: T2, human IL-33 (mm2); experiment: cell-based or functional assay

- IC50, HEK293 ST2 NFkB [1]: 0.131 nM
- IC50, HEK293 ST2 NFkB [2]: 0.059 nM
- IC50, IFN-γ production in human PBMC [3]: 0.0014 nM
- IC50, HEK293 ST2 NFkB [4]: 0.069 nM
- IC50, HEK293 ST2 NFkB [5]: 3.21 nM
- IC50, HEK293 ST2 NFkB [6]: 0.043 nM
- EC50 of IL-33 + 2 pM 7E8, HEK293 ST2 NFkB reporter cells [7]: 8 pM
- EC50 of IL-33 + 20 pM 7E8, HEK293 ST2 NFkB reporter cells [7]: 10.2 pM
- EC50 of IL-33 + 200 pM 7E8, HEK293 ST2 NFkB reporter cells [7]: 25.8 pM
- EC50 of IL-33 + 2 nM 7E8, HEK293 ST2 NFkB reporter cells [7]: 0.103 nM
- EC50 of IL-33 + 20 nM 7E8, HEK293 ST2 NFkB reporter cells [7]: 0.653 nM
- EC50 of IL-33 + 0.2 pM 7E8, human PBMC donor 149 [8]: 0.9 pM
- EC50 of IL-33 + 0.2 pM 7E8, human PBMC donor 172 [8]: 15.1 pM
- EC50 of IL-33 + 2 pM 7E8, human PBMC donor 149 [8]: 2.6 pM
- EC50 of IL-33 + 2 pM 7E8, human PBMC donor 172 [8]: 23.2 pM
- EC50 of IL-33 + 20 pM 7E8, HEK293 ST2 NFkB reporter cells [8]: 2.6 pM
- EC50 of IL-33 + 20 pM 7E8, human PBMC donor 149 [8]: 29.1 pM
- EC50 of IL-33 + 20 pM 7E8, human PBMC donor 172 [8]: 154 pM
- EC50 of IL-33 + 200 pM 7E8, HEK293 ST2 NFkB reporter cells [8]: 29.1 pM
- EC50 of IL-33 + 200 pM 7E8, human PBMC donor 149 [8]: 262 pM
- EC50 of IL-33 + 200 pM 7E8, human PBMC donor 172 [8]: 400 pM
- EC50 of IL-33 + 2 nM 7E8, HEK293 ST2 NFkB reporter cells [8]: 0.262 nM
- EC50 of IL-33 + 2 nM 7E8, human PBMC donor 149 [8]: 2.83 nM
- EC50 of IL-33 + 2 nM 7E8, human PBMC donor 172 [8]: 1.22 nM
- EC50 of IL-33 + 20 nM 7E8, HEK293 ST2 NFkB reporter cells [8]: 2.83 nM
- IC50, HEK293 ST2 NFkB cyno IL-33 [9]: 0.18 nM
- IC50, HEK293 ST2 NFkB [10]: 0.114 nM
- IC50, PBMC mm2 [10]: 0.004 nM
- IC50, whole blood mm2 [10]: 0.009 nM
- IC50, HEK293 ST2 NFkB [11]: 0.077 nM
- IC50, HEK293 ST2 NFkB [12]: 0.057 nM
- Kd [13]: 0.142 nM
- Kd [14]: 0.171 nM
- IC50, HEK293 ST2 NFkB [15]: 0.054 nM
- IC50, HEK293 ST2 NFkB [16]: 0.04 nM
- IC50, human whole blood [17]: 0.387 nM
- IC50, human whole blood [18]: 0.014 nM
- IC50, HEK293 ST2 NFkB [19]: 0.184 nM
- IC50, HEK293 ST2 NFkB [20]: 0.322 nM
- IC50, HEK293 ST2 NFkB [21]: 0.093 nM
- IC50, HEK293 ST2 NFkB [22]: 0.019 nM
B1: 7E8 CDR graft (antibody, human IgG1, kappa)
heavy: HSEVQLVESGGGLVQPGGSLRLSCAASGFTFSSYWMYWVRQAPGKGLEWVASITPNGGNTYYPDSVKGRFTISRDNAKNSLYLQMNSLRAEDTAVYYCARGHYYYTSYSLGYWGQGTLVTVSSASTKGPSVFPLAPSSKSTSGGTAALGCLVKDYFPEPVTVSWNSGALTSGVHTFPAVLQSSGLYSLSSVVTVPSSSLGTQTYICNVNHKPSNTKVDKKVEPKSCDKTHTCPPCPAPEAAGAPSVFLFPPKPKDTLMISRTPEVTCVVVDVSHEDPEVKFNWYVDGVEVHNAKTKPREEQYNSTYRVVSVLTVLHQDWLNGKEYKCKVSNKALPAPIEKTISKAKGQPREPQVYTLPPSREEMTKNQVSLTCLVKGFYPSDIAVEWESNGQPENNYKTTPPVLDSDGSFFLYSKLTVDKSRWQQGNVFSCSVMHEALHNHYTQKSLSLSPGK
light: DIQMTQSPSSLSASVGDRVTITCKASQNINKHLDWYQQKPGKAPKLLIYFTNNLQTGVPSRFSGSGSGTDFTLTISSLQPEDFATYYCFQYNNGWTFGGGTKVEIKRTVAAPSVFIFPPSDEQLKSGTASVVCLLNNFYPREAKVQWKVDNALQSGNSQESVTEQDSKDSTYSLSSTLTLSKADYEKHKVYACEVTHQGLSSPVTKSFNRGEC
notes: also called CDR-grafted 7E8; 7E8 CDR-grafted
